Laboratory results from article PMC3300016.

How the values were obtained:
[1] = biological target: BPV-1 E1 helicase domain (E1HD), residues 299-605 (bovine papillomavirus (BPV-1)) (UniProt P03116); test: SEC
[2] = biological target: T1, E1HD (E1 helicase domain) (bovine papillomavirus BPV-1, UniProt P03116 299-605); test: EMSA
[3] = biological target: T1, E1HD (E1 helicase domain); test: gel filtration

T1 sequence (P03116 299-605): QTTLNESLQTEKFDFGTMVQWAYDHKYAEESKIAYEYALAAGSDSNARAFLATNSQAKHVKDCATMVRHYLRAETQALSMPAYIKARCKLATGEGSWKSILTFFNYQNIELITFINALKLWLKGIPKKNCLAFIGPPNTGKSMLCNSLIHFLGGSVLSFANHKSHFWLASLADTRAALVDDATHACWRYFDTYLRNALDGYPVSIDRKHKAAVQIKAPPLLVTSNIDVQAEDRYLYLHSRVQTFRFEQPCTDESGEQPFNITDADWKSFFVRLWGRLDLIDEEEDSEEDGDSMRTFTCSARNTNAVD

## BPV-1 E1 helicase domain (E1HD), residues 299-605 (from UniProt P03116 299-605) (domain or fragment)
[1]
  stoichiometry N: 6

B1: T30 (ssDNA)
DNA: TTTTTTTTTTTTTTTTTTTTTTTTTTTTTT
[2]
  binding result: binds

B2: T18 (ssDNA)
DNA: TTTTTTTTTTTTTTTTTT
[3]
  binding result: binds
